These are literature values, as cited in article PMC7596073.

Several values for one entry are separate records, joined by “and”; a condition that tells them apart may be missing. Identical values can stand only once.

This data set deals with IL-18BP (Homo sapiens) (UniProt O95998).
IL-18BP (Homo sapiens), sequence (O95998 31-194): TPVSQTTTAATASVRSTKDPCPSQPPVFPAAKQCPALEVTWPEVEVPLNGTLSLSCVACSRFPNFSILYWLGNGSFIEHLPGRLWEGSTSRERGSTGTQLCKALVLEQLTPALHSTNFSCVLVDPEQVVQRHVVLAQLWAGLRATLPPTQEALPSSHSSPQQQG

IL-18, sequence (Q14116 37-193): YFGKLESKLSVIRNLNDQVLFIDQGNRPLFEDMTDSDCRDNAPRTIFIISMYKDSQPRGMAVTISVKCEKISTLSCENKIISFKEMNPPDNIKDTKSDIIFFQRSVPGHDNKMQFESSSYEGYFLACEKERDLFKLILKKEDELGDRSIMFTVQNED

As a reminder, the Kd is the concentration at which binding is half-saturated. Regarding IL-18 (from UniProt Q14116), the Kd is 0.04 nM and 0.4 nM.
